# Measured values: US20210317168
# B1: Calcium-dependent serine protease, complement component 1s (C1s) of CHO cells (protein)
# chain: EPTMHGEILSPNYPQAYPNEIEKTWDIEVPEGFGIRLYFTHLDMELSENCEYDSVQIISGGVEEGRLCGQRTSKNANSPIVEEFQMPYNKLQVIFRSDFSNEERFTGFAAYYAAVDINECTDFTDVPCSHFCNNFIGGYFCSCPPEYFLHDDMRNCGVNCSGNVFTALIGEISSPNYPSPYPENSRCEYQILLEEGFQVVVTIRREDFDVEPADSEGNCQDSLLFAAKNQLFGPYCGNGFPGPLTIETHSNTLDIVFQTDLTEQRKGWKLRYHGDPIPCPKEITANSVWVPEKAKYVFKDVVKISCVDGFEVVEGNVGSAFFYSTCQSNGQWSNSRLQCQPVDCGIPEPIQNGKVDDPENTVFGSVIQYSCEEPYYYMEHEEHGGEYRCAANGSWVNDELGIELPKCVPVCGVPTEPIALQQRIFGGFPAKIQSFPWQVFFESPRAGGALIDEYWVLTAAHVVEGNSDPSMYVGTTFVRMEHLANAQRLTAERVIIHPGWKPADDLETRTNFDNDIALVQLKDPVKMGPTVSPICLPGTSSEYNPSKNDLGLISGWGRTEKRNIVPQLKGAKLPVTSLEKCQQVKGENSKVRADDYVFTSNMICAGEKGVDSCQGDSGGAFALQVPNVKDPKFYVAGLVSWGKKCGTYGIYTKVKNYMDWIVKTMQENSVPSKD
# Target: purified MN gp120 (clade B), P05877
protein,measurement,value
B1,"proteolysis of gp120 in 10x concentrated CHO supernatant, western blot, with or without EGTA","inhibition of proteolysis of gp120 in CHO cell supernatant with EGTA, a calcium-chelating agent suggested that C1s is the major protease responsible for gp120 cleavage"
